Assay [1] deals with ScuR-StrepTag (Streptococcus salivarius HSISS4). Description: EMSA: Cy3 PsptA probe, constant ScuR-StrepTag, decreasing sBI7; peptide-dependent ternary complex.
Another assay concerns the target ScuR/SarF system. Description: cell-based or functional assay.

Consider LPFWLILG [sBI7], for which the lowest peptide concentration at which ScuR shifts the PsptA probe in assay [1] was determined as 0.08 nM. Also, the peptide concentration to which the PsptA, PslvX and PcomS luxAB reporters respond in WT background with ScuR/SarF system is under 1 nM.
